Test results from patent US20210403582A1 (JACOBIO PHARMACEUTICALS, published 2021).

B1: 38E10E1C11 chimeric antibody (antibody, human IgG1, kappa)
heavy: not shown
light: DIHMTQSPASLSASVGETVTITCRASENIYSYLAWYQQKQGKSPQLLVYNAKTLAEGVPSRFSGSGSGTQFSLKINSLQPEDFGSYYCQHHYVTPLTFGAGTKLELKRTVAAPSVFIFPPSDEQLKSGTASVVCLLNNFYPREAKVQWKVDNALQSGNSQESVTEQDSKDSTYSLSSTLTLSKADYEKHKVYACEVTHQGLSSPVTKSFNRGEC
notes: Mouse variable regions of 38E10E1C11 with human IgG1 / kappa constant regions; also called 38E Chimeric; 38E chimeric antibody
B2: H2L2 (antibody, human IgG1, kappa)
heavy: not shown
light: DIHMTQSPSSLSASVGDRVTITCRASENIYSYLAWYQQKPGKSPKLLVYNAKTLAEGVPSRFSGSGSGTDFTLTISSLQPEDFATYYCQHHYVTPLTFGQGTKLEIKRTVAAPSVFIFPPSDEQLKSGTASVVCLLNNFYPREAKVQWKVDNALQSGNSQESVTEQDSKDSTYSLSSTLTLSKADYEKHKVYACEVTHQGLSSPVTKSFNRGEC
notes: Humanized, human IgG1 / kappa
B3: H3L1 (antibody, human IgG1, kappa, N297A)
heavy: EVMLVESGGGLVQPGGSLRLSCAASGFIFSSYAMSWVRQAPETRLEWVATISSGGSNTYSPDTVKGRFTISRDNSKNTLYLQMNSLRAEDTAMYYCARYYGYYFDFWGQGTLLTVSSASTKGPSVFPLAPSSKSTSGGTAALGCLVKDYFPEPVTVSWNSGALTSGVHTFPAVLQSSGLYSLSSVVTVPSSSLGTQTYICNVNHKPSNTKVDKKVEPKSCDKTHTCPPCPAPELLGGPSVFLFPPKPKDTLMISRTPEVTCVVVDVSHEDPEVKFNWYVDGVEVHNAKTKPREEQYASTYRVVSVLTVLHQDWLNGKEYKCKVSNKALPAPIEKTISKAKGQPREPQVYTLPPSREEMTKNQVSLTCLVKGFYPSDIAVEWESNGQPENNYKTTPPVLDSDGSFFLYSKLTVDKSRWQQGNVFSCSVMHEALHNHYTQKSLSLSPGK
light: DIQMTQSPSSLSASVGDRVTITCRASENIYSYLAWYQQKPGKSPKLLVYNAKTLAEGVPSRFSGSGSGTDFTLTISSLQPEDFATYYCQHHYVTPLTFGQGTKLEIKRTVAAPSVFIFPPSDEQLKSGTASVVCLLNNFYPREAKVQWKVDNALQSGNSQESVTEQDSKDSTYSLSSTLTLSKADYEKHKVYACEVTHQGLSSPVTKSFNRGEC
notes: Humanized, human IgG1 / kappa
B4: H1L2 (antibody, human IgG1, kappa, N297A)
heavy: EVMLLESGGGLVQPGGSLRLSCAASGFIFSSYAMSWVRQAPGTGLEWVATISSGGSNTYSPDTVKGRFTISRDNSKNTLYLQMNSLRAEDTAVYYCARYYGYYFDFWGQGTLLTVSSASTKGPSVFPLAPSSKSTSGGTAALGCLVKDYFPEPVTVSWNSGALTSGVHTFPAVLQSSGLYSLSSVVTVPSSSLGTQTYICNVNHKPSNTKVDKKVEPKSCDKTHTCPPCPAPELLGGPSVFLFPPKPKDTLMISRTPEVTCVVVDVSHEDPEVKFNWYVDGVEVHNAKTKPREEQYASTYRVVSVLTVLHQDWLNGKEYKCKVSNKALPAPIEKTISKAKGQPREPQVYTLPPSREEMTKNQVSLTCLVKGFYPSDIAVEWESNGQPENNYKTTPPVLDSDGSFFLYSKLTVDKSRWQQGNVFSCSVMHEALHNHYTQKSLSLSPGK
light: DIHMTQSPSSLSASVGDRVTITCRASENIYSYLAWYQQKPGKSPKLLVYNAKTLAEGVPSRFSGSGSGTDFTLTISSLQPEDFATYYCQHHYVTPLTFGQGTKLEIKRTVAAPSVFIFPPSDEQLKSGTASVVCLLNNFYPREAKVQWKVDNALQSGNSQESVTEQDSKDSTYSLSSTLTLSKADYEKHKVYACEVTHQGLSSPVTKSFNRGEC
notes: Humanized, human IgG1 / kappa
B5: H2L1 (antibody, human IgG1, kappa)
heavy: not shown
light: DIQMTQSPSSLSASVGDRVTITCRASENIYSYLAWYQQKPGKSPKLLVYNAKTLAEGVPSRFSGSGSGTDFTLTISSLQPEDFATYYCQHHYVTPLTFGQGTKLEIKRTVAAPSVFIFPPSDEQLKSGTASVVCLLNNFYPREAKVQWKVDNALQSGNSQESVTEQDSKDSTYSLSSTLTLSKADYEKHKVYACEVTHQGLSSPVTKSFNRGEC
notes: Humanized, human IgG1 / kappa
B6: H2L3 (antibody, human IgG1, kappa, V domains shown)
VH: EVMLVESGGGLVQPGGSLRLSCAASGFIFSSYAMSWVRQAPGTGLEWVATISSGGSNTYSPDTVKGRFTISRDNSKNTLYLQMNSLRAEDTAMYYCARYYGYYFDFWGQGTLLTVSS
VL: DIHMTQSPSSLSASVGDRVTITCRASENIYSYLAWYQQKPGKSPQLLVYNAKTLAEGVPSRFSGSGSGTQFTLTISSLQPEDFATYYCQHHYVTPLTFGQGTKLEIKR
notes: Humanized, human IgG1 / kappa
B7: H1L3 (antibody, human IgG1, kappa, N297A, V domains shown)
VH: EVMLLESGGGLVQPGGSLRLSCAASGFIFSSYAMSWVRQAPGTGLEWVATISSGGSNTYSPDTVKGRFTISRDNSKNTLYLQMNSLRAEDTAVYYCARYYGYYFDFWGQGTLLTVSS
VL: DIHMTQSPSSLSASVGDRVTITCRASENIYSYLAWYQQKPGKSPQLLVYNAKTLAEGVPSRFSGSGSGTQFTLTISSLQPEDFATYYCQHHYVTPLTFGQGTKLEIKR
notes: Humanized, human IgG1 / kappa
B8: H3L3 (antibody, human IgG1, kappa, N297A, V domains shown)
VH: EVMLVESGGGLVQPGGSLRLSCAASGFIFSSYAMSWVRQAPETRLEWVATISSGGSNTYSPDTVKGRFTISRDNSKNTLYLQMNSLRAEDTAMYYCARYYGYYFDFWGQGTLLTVSS
VL: DIHMTQSPSSLSASVGDRVTITCRASENIYSYLAWYQQKPGKSPQLLVYNAKTLAEGVPSRFSGSGSGTQFTLTISSLQPEDFATYYCQHHYVTPLTFGQGTKLEIKR
notes: Humanized, human IgG1 / kappa
B9: 38E HuH2L4 (antibody, human IgG1, kappa, V domains shown)
VH: EVMLVESGGGLVQPGGSLRLSCAASGFIFSSYAMSWVRQAPGTGLEWVATISSGGSNTYSPDTVKGRFTISRDNSKNTLYLQMNSLRAEDTAMYYCARYYGYYFDFWGQGTLLTVSS
VL: DIHMTQSPSSLSASVGDRVTITCRASENIYSYLAWYQQKQGKSPQLLVYNAKTLAEGVPSRFSGSGSGTQFTLKINSLQPEDFATYYCQHHYVTPLTFGQGTKLEIKR
notes: Humanized, human IgG1 / kappa
B10: 38E HuH1L1 (antibody, human IgG1, kappa, N297A)
heavy: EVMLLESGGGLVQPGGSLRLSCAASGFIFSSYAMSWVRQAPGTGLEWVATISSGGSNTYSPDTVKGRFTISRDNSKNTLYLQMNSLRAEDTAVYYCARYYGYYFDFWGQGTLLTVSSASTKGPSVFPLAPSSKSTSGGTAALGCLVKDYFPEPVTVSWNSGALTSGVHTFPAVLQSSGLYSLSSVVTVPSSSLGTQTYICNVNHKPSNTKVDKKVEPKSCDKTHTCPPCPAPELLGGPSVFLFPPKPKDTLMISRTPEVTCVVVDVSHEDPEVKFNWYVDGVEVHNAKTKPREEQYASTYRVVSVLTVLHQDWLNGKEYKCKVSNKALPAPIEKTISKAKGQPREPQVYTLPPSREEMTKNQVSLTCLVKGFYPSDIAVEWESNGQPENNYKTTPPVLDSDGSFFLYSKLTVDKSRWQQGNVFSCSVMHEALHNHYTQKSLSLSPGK
light: DIQMTQSPSSLSASVGDRVTITCRASENIYSYLAWYQQKPGKSPKLLVYNAKTLAEGVPSRFSGSGSGTDFTLTISSLQPEDFATYYCQHHYVTPLTFGQGTKLEIKRTVAAPSVFIFPPSDEQLKSGTASVVCLLNNFYPREAKVQWKVDNALQSGNSQESVTEQDSKDSTYSLSSTLTLSKADYEKHKVYACEVTHQGLSSPVTKSFNRGEC
notes: Humanized, human IgG1 / kappa
B11: 38E HuH1L4 (antibody, human IgG1, kappa, N297A, V domains shown)
VH: EVMLLESGGGLVQPGGSLRLSCAASGFIFSSYAMSWVRQAPGTGLEWVATISSGGSNTYSPDTVKGRFTISRDNSKNTLYLQMNSLRAEDTAVYYCARYYGYYFDFWGQGTLLTVSS
VL: DIHMTQSPSSLSASVGDRVTITCRASENIYSYLAWYQQKQGKSPQLLVYNAKTLAEGVPSRFSGSGSGTQFTLKINSLQPEDFATYYCQHHYVTPLTFGQGTKLEIKR
notes: Humanized, human IgG1 / kappa

Experiments:
[1] = biological target: T1, human LIF protein (human, UniProt P15018 23-202); assay: BLI (Gator), antibody on anti-human Fc biosensor, human LIF in solution
T1 construct: Bought recombinant protein (Sino Biological / Yiqiao Shenzhou 14890-HNAH) in most assays; also called recombinant human LIF protein; rhLIF
Protocol: The affinity of anti-LIF antibody to human LIF protein was determined using Gator. The anti-human LIF antibody was first diluted to 5 ug/mL with PBS and then added to A-F wells in second column of the 96-well plate (200 μL per well). […] PBS was added to A-F wells in the first and third columns (200 μL per well). The 96-well plates were placed into the instrument and detected with anti-human Fc biosensor.

[2] = biological target: T1, human LIF protein; assay: ELISA, antigen coated 0.5 ug/ml, 293S supernatant heated 70 C 5 min, antibody 0.04 ug/mL
Protocol: (§1) Each well was coated with 100 μL of 0.5 μg/ml antigen and incubate overnight at 4° C., and the plates were washed three times with 300 μL of Wash Buffer. The plates were closed with 200 μL of Closure Buffer (2% bovine serum albumin) for 60 min at room temperature. The plates were washed three times with 300 μL of Wash Buffer. 100 μL of diluted anti-LIF antibody at different concentrations was added to each well and incubate for 1 hour at room temperature. The plates were washed 4 times with 300 μL of Wash Buffer. 100 μL of HRP-labeled goat anti-human Fc secondary antibody at a dilution of 1:5000 was added and incubate for 1 hour at room temperature. The plates were washed 6 times with 300 μL of Wash Buffer. 100 μL of H₂O₂-Amplx Color Development Solution was added for developing the color for 10 min at room temperature under dark conditions. The OD 450 value was read by an enzyme marker. Heat treatment: the expression medium was heated on the PCR machine at 70° C. for 5 min and then rapidly cooled to room temperature. Perform subsequent ELISA assays as above.

[3] = biological target: T1, human LIF protein; assay: ELISA, antigen coated 0.5 ug/ml, 293S supernatant heated 70 C 5 min, antibody 1 ug/mL
Protocol: as §1

[4] = biological target: T1, human LIF protein; assay: ELISA, antigen coated 0.5 ug/ml, 293S supernatant non-heated, antibody 0.04 ug/mL
Protocol: as §1

[5] = biological target: T1, human LIF protein; assay: ELISA, antigen coated 0.5 ug/ml, 293S supernatant non-heated, antibody 0.2 ug/mL
Protocol: as §1

[6] = biological target: T1, human LIF protein; assay: ELISA, antigen coated 0.5 ug/ml, 293S supernatant non-heated, antibody 1 ug/mL
Protocol: as §1

[7] = biological target: T1, human LIF protein; assay: ELISA, antigen coated 0.5 ug/ml, 293S supernatant heated 70 C 5 min, antibody 0.2 ug/mL
Protocol: as §1

[8] = biological target: T1, human LIF protein; assay: ELISA (non-heated), purified IgG on antigen coated at 0.5 µg/mL, 3-fold dilutions
[9] = biological target: T1, human LIF protein; assay: ELISA (heated), antibody kept at 70 °C for 5 min before the ELISA, antigen coated at 0.5 µg/mL

T1 sequence (P15018 23-202 limits assumed): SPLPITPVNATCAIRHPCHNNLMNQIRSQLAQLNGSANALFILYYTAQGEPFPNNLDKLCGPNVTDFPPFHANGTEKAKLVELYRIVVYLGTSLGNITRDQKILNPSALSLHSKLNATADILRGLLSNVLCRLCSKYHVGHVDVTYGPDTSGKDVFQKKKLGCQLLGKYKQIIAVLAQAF

Binder	Kd [1]	koff [1]	kon [1]	ELISA signal [2]	ELISA signal [3]	ELISA signal [4]	ELISA signal [5]	ELISA signal [6]	ELISA signal [7]	EC50 (read off the curve) [8]	EC50 (read off the curve) [9]
B1	0.0233 nM	1.57e-05 s⁻¹	677000 M⁻¹ s⁻¹	4730	10600	6780	10400	11400	8840	~0.07 µg/mL	–
B2	–	–	–	5260	9780	6520	10300	11700	8720	–	–
B3	–	–	–	5190	9130	6220	10000	11400	7900	–	–
B4	–	–	–	5490	9830	6680	11200	12100	8920	–	–
B5	–	–	–	5440	9650	6370	10700	12000	8560	–	–
B6	–	–	–	4870	9730	6270	11300	12000	9150	–	–
B7	–	–	–	4980	9630	6440	10800	11800	8750	–	–
B8	–	–	–	5390	9540	6760	11000	11300	8900	–	–
B9	–	–	–	5700	10600	6880	10900	11800	9230	~0.07 µg/mL	~0.3 µg/mL
B10	0.0817 nM	4.65e-05 s⁻¹	569000 M⁻¹ s⁻¹	5970	9800	6850	10600	11800	9010	~0.07 µg/mL	~0.1 µg/mL
B11	–	–	–	5670	10500	7320	10900	11900	9700	~0.07 µg/mL	~0.3 µg/mL
